Test system: SKOV3 (ovarian carcinoma) cells
Test: Apoptosis assay, annexin V and PI staining followed by FACS analysis (FIG. 1B)
Format: cell-based
Conditions: SKOV3 cells from the same transfections
Experimental: As a measure of cellular toxicity of the transfection agents, cells from the same transfections were stained with annexin V and PI, followed by FACS analysis (FIG. 1B). The fraction of cells positive for Annexin V, or for Annexin V and PI, are those in early or late stage apoptosis, respectively.
Apoptosis Assay. Following transfection with antisense oligonucleotides and various transfection agents, cells were gently removed from plates using 0.05% trypsin and 2 mM EDTA, washed in a buffer containing 10 mM Hepes pH7.2, 140 mM NaCl, 5 mM CaCl2, and stained with Propidium iodide at a final concentration of 1 μg/ml and Annexin-V-FLUOS (Roche Molecular Biochemicals). Cells were then analyzed for staining with each marker using a Becton Dickinson FACScan.

| SMILES | Staining with annexin V or PI (apoptosis) |
| --- | --- |
| COc1ccc(CCN(CC(N)=O)C(=O)CN(CCc2ccc(OC)cc2)C(=O)CN(CCN)C(=O)CN(CCc2ccc(OC)cc2)C(=O)CN(CCc2ccc(OC)cc2)C(=O)CN(CCN)C(=O)CN(CCc2ccc(OC)cc2)C(=O)CN(CCc2ccc(OC)cc2)C(=O)CN(CCN)C(=O)CCNC(=O)O[C@H]2CC[C@@]3(C)C(=CC[C@H]4[C@@H]5CC[C@H]([C@H](C)CCCC(C)C)[C@@]5(C)CC[C@@H]43)C2)cc1 [Cholesteroid 1] | negligible staining |
| CCCCCCCCCCCCCC(=O)OCC(COP(=O)(O)OCCNCC(=O)N(CCN)CC(=O)N(CCc1ccc(OC)cc1)CC(=O)N(CCc1ccc(OC)cc1)CC(=O)N(CCN)CC(=O)N(CCc1ccc(OC)cc1)CC(=O)N(CCc1ccc(OC)cc1)CC(=O)N(CCN)CC(=O)N(CCc1ccc(OC)cc1)CC(=O)N(CCc1ccc(OC)cc1)CC(N)=O)OC(=O)CCCCCCCCCCCCC (centres unmarked) [Lipitoid 1] | negligible staining |
